Assay results reported in patent US20230137139A1, “BIOSYNTHESIS OF CANNABINOIDS AND C[…]” (priority 2020, published 2023).

Tests used:
[1] = system: CBCA, THCA, and CBDA production; assay: In vivo TS activity assay, Example 2 protein engineering of A. niger CBCAS, cultures fed olivetolic acid; format: cell-based, S. cerevisiae; details: for average CBCA titer compared with the A. niger positive control / Mean CBCA / Mean CBDA / Mean THCA: secondary screen; for Mean CBCA / Mean CBDA / Mean THCA: olivetolic acid (Table 8); for % CBCA / % CBDA / % THCA: share of terminal cannabinoid product profile
Description: (§1) An assay to detect TS activity was conducted as follows: each thawed glycerol stock of candidate CBCAS transformants was stamped into a well of YEP+4% dextrose media. Samples were incubated at 30° C. in a shaking incubator for 2 days. A portion of each of the resulting cultures was stamped into a well of YEP+4% galactose+1 mM olivetolic acid (FIG. 1 Structure 6a). Samples were incubated at 20° C. and shaken in a shaking incubator for 4 days. Every 24 hours during those 4 days, 2% galactose and 1 mM olivetolic acid were spiked into the cultures. Sodium citrate buffer adjusted to pH 5.5 was added to each well at a final concentration of 100 mM. Samples were incubated at 20° C. and shaken in a shaking incubator for 2 days. A portion of each of the resulting production cultures was stamped into a well of phosphate buffered saline (PBS). Optical measurements were taken on a plate reader, with absorbance measured at 600 nm and fluorescence at 528 nm with 485 nm excitation. Samples were incubated at 30° C. in a shaking incubator for 2 days. 100% methanol was stamped into the production cultures in half-height deepwell plates. Plates were heat sealed and frozen. Samples were then thawed for 30 min and spun down at 4° C. A portion of the supernatant was stamped into half-area 96 well plates. CBCA, THCA, and CBDA production in the samples was quantified via liquid chromatography-mass spectrometry (LC-MS).
(§2) To determine whether engineering of the A. niger CBCAS identified in Example 1 (corresponding to SEQ ID NO: 29 (with signal peptides); SEQ ID NO: 27 (without signal peptides and including an N-terminal methionine (UniProt accession No. A0A254UC34)); or SEQ ID NO: 25 (without signal peptides and without the N-terminal methionine)), could alter CBCAS substrate specificity, product specificity and/or amounts of products produced, point mutations were generated in A. niger CBCAS and the mutant versions of the protein were expressed in S. cerevisiae. A library containing 1047 A. niger CBCAS mutants was generated and screened. As in Example 1, each CBCAS mutant in the library, as well as the enzymes expressed by positive control strains, included an N-terminal MFalpha2 signal peptide (SEQ ID NO: 16) (with a methionine residue added at the N-terminus of the MFalpha2 signal peptide) and a C-terminal HDEL signal peptide (SEQ ID NO: 17).
Production of compounds of Formulae (9), (10), and/or (11), including compounds of Formulae (9a), (10a), and/or (11a) by strains expressing the mutated versions of A. niger CBCAS was quantified and compared to the production of the same compounds by a strain expressing wild-type A. niger CBCAS, a strain expressing a C. sativa THCAS, and a strain expressing a C. sativa CBDAS. The strains were screened using the same assay described in Example 1. Production of CBCA, THCA, and/or CBDA in the samples was quantified via LC-MS.
(§3) Of the original 1047 library members, 55 strains were elevated to a secondary screen to verify CBCA production. The experimental protocol for the secondary screen was identical to the primary screen, except that additional biological replicates were included per strain, and replicate production cultures for each strain were separately fed 1 mM boluses of olivetolic acid or 1 mM boluses of divaric acid. All strains were screened in quadruplicate.

[2] = system: CBCVA, THCVA, and CBDVA production; assay: In vivo TS activity assay, Example 2 protein engineering of A. niger CBCAS, cultures fed divaric acid; format: cell-based, S. cerevisiae; details: for Mean CBCVA / Mean CBDVA / Mean THCVA: S. cerevisiae strains expressing A. niger CBCAS mutants; for Mean CBCVA / Mean CBDVA / Mean THCVA / average CBCVA titer compared with the A. niger positive control: secondary screen; for Mean CBCVA / Mean CBDVA / Mean THCVA / % CBCVA / % CBDVA / % THCVA: fed divaric acid; for % CBCVA / % CBDVA / % THCVA: share of terminal cannabinoid product profile
Description: as §1, §2, §3

Molecule | average CBCA titer compared with the A. niger positive control [1] | Mean CBCA [1] [µg/L] | Mean CBDA [1] [µg/L] | Mean THCA [1] [µg/L] | % CBCA [1] [%] | % CBDA [1] [%] | % THCA [1] [%] | Mean CBCVA [2] [µg/L] | Mean CBDVA [2] [µg/L] | Mean THCVA [2] [µg/L] | % CBCVA [2] [%] | % CBDVA [2] [%] | % THCVA [2] [%] | average CBCVA titer compared with the A. niger positive control [2]
t865771 (protein, expressed in S. cerevisiae strain) MGNTTSIAGRDCLISALGGNSALAVFPNELLWTADVHEYNLNLPVTPAAITYPETAAQIAGVVKCASDYDYKVQARSGGHSFGNYGLGGADGAVVVDMKHFTQFSMDDETYEAVIGPGTTLNDVDIELYNNGKRAMAHGVCPTIKTGGHFTIGGLGPTARQWGLALDHVEEVEVVLANSSIVRASNTQNQDVFFAVKGAAANFGIVTEFKVRTEPAPGLAVQYSYTFNLGSTAEKAQFVKDWQSFISAKNLTRQFYNNMVIFDGDIILEGLFFGSKEQYDALGLEDHFAPKNPGNILVLTDWLGMVGHALEDTILKLVGNTPTWFYAKSLGFRQDTLIPSAGIDEFFEYIANHTAGTPAWFVTLSLEGGAINDVAEDATAYAHRDVLFWVQLFMVNPVGPISDTTYEFTNGLYDVLARAVPESVGHAYLGCPDPRMEDAQQKYWRTNLPRLQELKEELDPKNTFHHPQGVMPA | higher | 40971.16 | 8309.68 | 2638.90 | 78.91 | 16.00 | 5.08 | 1592.02 | 0.00 | 968.82 | 62.17 | 0.00 | 37.83 | –
t865750 (protein, expressed in S. cerevisiae strain) MGNTTSIAGRDCLISALGGNSALAVFPNELLWTADVHEYNLNLPVTPAAITYPETAAQIAGVVKCASDYDYKVQARSGGHSFGNYGLGGADGAVVVDMKHFTQFSMDDETYEAVIGPGTTLNDVDIELYNNGKRAMAHGVCPTIKTGGHFTIGGLGPTARQWGLALDHVEEVEVVLANSTIVRASNTQNQDVFFAVKGAAANFGIVTEFKVRTEPAPGLAVQYSYTFNLGSTAEKAQFVKDWQSFISAKNLTRQFYNNMVIFDGDIILEGLFFGSKEQYDALGLEDHFAPKNPGNILVLTDWLGMVGHALEDTILKLVGNTPTWFYAKSLGFRQDTLIPSAGIDEFFEYIANHTAGTPAWFVTLSLEGGAINDVAEDATAYAHRDVLFWVQLFMVNPVGPISDTTYEFTDGLYDVLARAVPESVGHAYLGCPDPRMEDAQQKYWRTNLPRLQELKEELDPKNTFHHPQGVMPA | higher | 39940.41 | 10807.90 | 2475.89 | 75.04 | 20.31 | 4.65 | 5745.78 | 0.00 | 2770.13 | 67.47 | 0.00 | 32.53 | higher
t865689 (protein) MGNTTSIAGRDCLISALGGNSALAVFPNELLWTADVHEYNLNLPVTPAAITYPETAAQIAGVVKCASDYDYKVQARSGGHSFGNYGLGGADGAVVVDMKHFTQFSMDDETYEAVIGPGTTLGDVDRELYNNGKRAMAHGVCPTIKTGGHFTIGGLGPTARQWGLALDHVEEVEVVLANSSIVRASNTQNQDVFFAVKGAAANFGIVTEFKVRTEPAPGLAVQYSYTFNLGSTAEKAQFVKDWQSFISAKNLTRQFYNNMVIFDGDIILEGLFFGSKEQYDALGLEDHFAPKNPGNILVLTDWLGMVGHALEDTILKLVGNTPTWFYAKSLGFRQDTLIPSAGIDEFFEYIANHTAGTPAWFVTLSLEGGAINDVAEDATAYAHRDVLFWVQLFMVNPVGPISDTTYEFTDGLYDVLARAVPESVGHAYLGCPDPRMEDAQQKYWRTNLPRLQELKEELDPKNTFHHPQGVMPA | higher | 38241.90 | 10157.65 | 2452.92 | 75.20 | 19.97 | 4.82 | 6333.32 | 0.00 | 2791.18 | 69.41 | 0.00 | 30.59 | higher
t878464 (protein, expressed in S. cerevisiae strain) MGNTTSIAGRDCLISALGGNSALAVFPNELLWTADVHEYNLNLPVTPAAITYPETAAQIAGVVKCASDYDYKVQARSGGHSFGNYGLGGADGAVVVDMKHFTQFSMDDETYEAVIGPGTTLNDVDIELYNNGKRAMAHGVCPTIKTGGHFTIGGLGPTARQWGLALDHVEEVEVVLANSSIVTASNTQNQDVFFAVKGAAANFGIVTEFKVRTEPAPGLAVQYSYTFNLGSTAEKAQFVKDWQSFISAKNLTRQFYNNMVIFDGDIILEGLFFGSKEQYDALGLEDHFAPKNPGNILVLTDWLGMVGHALEDTILKLVGNTPTWFYAKSLGFRQDTLIPSAGIDEFFEYIANHTAGTPAWFVTLSLEGGAINDVAEDATAYAHRDVLFWVQLFMVNPVGPISDTTYEFTDGLYDVLARAVPESVGHAYLGCPDPRMEDAQQKYWRTNLPRLQELKEELDPKNTFHHPQGVMPA | higher | 38911.71 | 9203.22 | 2062.10 | 77.55 | 18.34 | 4.11 | 5383.16 | 0.00 | 2710.86 | 66.51 | 0.00 | 33.49 | higher
t865739 (protein) MGNTTSIAGRDCLISALGGNSALAVFPNELLWTADVHEYNLNLPVTPAAITYPETAAQIAGVVKCASDYDYKVQARSGGHSFGNYGLGGADGAVVVDMKHFTQFSMDDETYEAVIGPGTTLNDVDIELYNNGKRAMAHGVCPTIKTGGHFTIGGLGPTARQWGLALDHVEEVEVVLANSSIVRASNTQNQDVFFAVKGAAANFGIVTEFKVRTEPAPGLAVQYSYTFNLGSTAEKAQFVKDWQSFISAKNLTRQFYNNMVIFDGDIILEGLFFGSKEQYDALGLEDHFAPKNPGNILVLTDWLGMVGHALEDTILKLVGNTPTWFYAKSLGFRQDTLIPSAGIDEFFEYIANHTAGTPAWFVTLSLEGGAINDVAEDATAYAHRDVLFWVQLFMVNPVGPISDTTYEFTDGLYDVLARAVPESVGHAYLGCPDPRMEDAQQKYWRTNLPKLQELKEELDPKNTFHHPQGVMPA | higher | 40214.21 | 10767.85 | 2538.89 | 75.14 | 20.12 | 4.74 | 4265.42 | 0.00 | 2039.44 | 67.65 | 0.00 | 32.35 | higher
